Here are results for one substance from paper PMC5832301.

The target in the test is UDP-glucose pyrophosphorylase from sugarcane (ScUGPase-1) (sugarcane (Saccharum spp. hybrids)). Nature of the test: SEC-MALS; sample of the larger oligomeric form peak; Superdex 200 increase 5/150, room temperature, 2.0 mg/mL, 20 mM Tris/HCl pH 8.0, 20 mM NaCl. A general note: In gel filtration, larger molecules generally elute earlier.

As usually defined, the stoichiometry N is a count of units in the complex or per binding partner. Substance “UDP-glucose pyrophosphorylase from sugarcane (ScUGPase-1) (from UniProt A0A075E2Q1 1-476) (enzyme)” displayed a stoichiometry N of 8.
